# In patent US20200116725:
# T1: P220 MMP9-cleavable peptide, Biotin-GGGGGGGGGGPLGVRGKGGC
# T1 chain: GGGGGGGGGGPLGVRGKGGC
# Molecular target: T1, P220 MMP9-cleavable peptide, …
protein,measurement,value
"MMP7 (Active, Human, Recombinant, E. coli, 444270, Merck Millipore) (protein) YSLFPNSPKWTSKVVTYRIVSYTRDLPHITVDRLVSKALNMWGKEIPLHFRKVVWGTADIMIGFARGAHGDSYPFDGPGNTLAHAFAPGTGLGGDAHFDEDERWTDGSSLGINFLYAATHELGHSLGMGHSSDPNAVMYPTYGNGDPQNFKLSQDDIKGIQKLYGKRSNSRKK","% Cleavage (free AuNC fraction: 7-12 mL), gel filtration chromatography with catalytic activity readout; AuNC-P220-NAv + MMP7/9/13 (12 h)",MMP7: 12.1%
